The results in this text go back to US20190185562A1 (Regeneron, published 2019).

For experiment [1], the target named is T1, full length human GP130 (leucine at position 2 changed to valine) on HEK293/Stat3-luc/gp130-2X Sort cells (human, UniProt P40189 23-918).
T1 construct: whole, on cells; also called HEK293/gp130 2X Sort
T1 sequence (looked up): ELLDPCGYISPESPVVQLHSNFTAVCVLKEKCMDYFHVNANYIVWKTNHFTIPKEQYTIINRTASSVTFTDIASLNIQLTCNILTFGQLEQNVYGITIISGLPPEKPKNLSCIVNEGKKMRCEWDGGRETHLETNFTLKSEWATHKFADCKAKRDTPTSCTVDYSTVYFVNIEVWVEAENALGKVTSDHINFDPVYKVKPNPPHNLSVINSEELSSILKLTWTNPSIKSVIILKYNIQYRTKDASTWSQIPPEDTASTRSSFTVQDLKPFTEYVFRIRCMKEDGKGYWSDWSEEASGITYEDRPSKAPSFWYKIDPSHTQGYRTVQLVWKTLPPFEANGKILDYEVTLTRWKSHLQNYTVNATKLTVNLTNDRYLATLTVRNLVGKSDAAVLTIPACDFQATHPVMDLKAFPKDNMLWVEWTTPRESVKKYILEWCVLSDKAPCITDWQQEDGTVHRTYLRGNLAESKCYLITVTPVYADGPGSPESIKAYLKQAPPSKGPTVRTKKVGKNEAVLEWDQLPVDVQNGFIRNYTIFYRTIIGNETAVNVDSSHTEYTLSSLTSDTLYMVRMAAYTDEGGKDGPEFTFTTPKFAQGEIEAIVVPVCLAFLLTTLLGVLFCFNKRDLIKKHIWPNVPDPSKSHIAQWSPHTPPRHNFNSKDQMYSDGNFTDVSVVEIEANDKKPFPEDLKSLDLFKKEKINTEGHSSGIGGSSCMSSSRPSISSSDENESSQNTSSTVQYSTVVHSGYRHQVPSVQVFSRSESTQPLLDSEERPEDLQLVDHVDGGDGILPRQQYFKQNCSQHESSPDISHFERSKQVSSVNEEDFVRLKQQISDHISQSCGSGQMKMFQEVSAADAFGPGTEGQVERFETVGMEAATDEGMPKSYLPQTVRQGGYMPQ
The experiment is described as follows: FACS, 200 nM antibody, HEK293/gp130 2X Sort cells. As to the method: (§1) For the FACS analysis, 0.5×10^6 cells/well of HEK293 parental cells, HEK293/Stat3-luc/gp130-2X Sort cells, and HEK293/hLEPR-GPI cells, were incubated with 200 nM of the conventional antibodies against either GP130 or LEPR or with LEPR×GP130 bispecific antibodies, along with isotype control antibodies at 4° C. in PBS (without calcium and magnesium) containing 2% FBS.
(§2) Cells were fixed using BD CytoFix™ (Becton Dickinson, #554655) and analyzed on an IQue® (Intellicyt) Flow Cytometer. Unstained and secondary antibody alone controls were also tested for all cell lines. The results were analyzed using ForeCyt® (IntelliCyt) and FlowJo version 10 softwares to determine the geometric means of fluorescence for viable cells.
(In general: Flow cytometry measures light scatter and fluorescence of single cells or particles in a stream.)

Experiment [2] deals with T2, wild-type human GP130 on HEK293.STAT3.Luc.GP130.hLEPR reporter cells (human, UniProt P40189 23-918).
T2 sequence (looked up): T1 sequence (looked up)
The experiment is described as follows: cell-based or functional assay.

Experiment [3] deals with T3, mutant human LEPR (Y1141F) on HEK293.STAT3.Luc.GP130.hLEPR (Y1141F) cells (human, UniProt P48357 22-1165).
T3 sequence (looked up): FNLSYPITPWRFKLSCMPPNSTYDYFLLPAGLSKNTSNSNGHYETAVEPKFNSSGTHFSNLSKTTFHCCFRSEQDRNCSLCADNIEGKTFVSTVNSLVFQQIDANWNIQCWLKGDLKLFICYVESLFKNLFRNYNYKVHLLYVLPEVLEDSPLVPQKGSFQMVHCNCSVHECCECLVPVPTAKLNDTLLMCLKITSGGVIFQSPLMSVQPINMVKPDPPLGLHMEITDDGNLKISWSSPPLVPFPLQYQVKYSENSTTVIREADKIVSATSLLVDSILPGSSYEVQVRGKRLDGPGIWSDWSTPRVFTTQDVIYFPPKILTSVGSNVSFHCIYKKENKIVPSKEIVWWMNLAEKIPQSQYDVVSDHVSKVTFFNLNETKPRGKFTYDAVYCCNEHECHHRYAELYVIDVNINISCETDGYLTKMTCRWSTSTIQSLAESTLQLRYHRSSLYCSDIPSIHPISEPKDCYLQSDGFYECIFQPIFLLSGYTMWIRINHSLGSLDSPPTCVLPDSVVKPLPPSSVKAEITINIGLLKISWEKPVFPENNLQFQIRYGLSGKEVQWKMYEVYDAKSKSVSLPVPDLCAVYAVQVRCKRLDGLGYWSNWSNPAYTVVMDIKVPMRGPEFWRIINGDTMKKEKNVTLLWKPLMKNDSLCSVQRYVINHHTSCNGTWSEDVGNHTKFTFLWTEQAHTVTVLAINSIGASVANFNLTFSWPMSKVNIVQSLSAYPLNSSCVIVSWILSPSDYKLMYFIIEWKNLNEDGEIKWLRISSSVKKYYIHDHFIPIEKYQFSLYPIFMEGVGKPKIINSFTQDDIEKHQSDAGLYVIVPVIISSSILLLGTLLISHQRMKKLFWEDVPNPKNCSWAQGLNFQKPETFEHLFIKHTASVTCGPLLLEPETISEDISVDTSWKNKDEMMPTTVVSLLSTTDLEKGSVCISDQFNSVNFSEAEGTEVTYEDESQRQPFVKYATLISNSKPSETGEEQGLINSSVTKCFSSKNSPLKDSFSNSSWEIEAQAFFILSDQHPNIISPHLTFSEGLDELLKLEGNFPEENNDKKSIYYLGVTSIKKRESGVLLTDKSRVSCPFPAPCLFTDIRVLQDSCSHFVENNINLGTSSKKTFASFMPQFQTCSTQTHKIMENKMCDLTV
The experiment is described as follows: cell-based or functional assay.

Experiment [4] has as its target T4, extracellular domain of human LEPR, GPI-anchored on HEK293/hLEPR-GPI cells (human, UniProt P48357 22-839, GPI anchor at the C-terminus ; GPI anchor at the C-terminus, added through the carboxypeptidase M signal peptide. The protein is displayed on the HEK293 cell membrane.).
T4 sequence: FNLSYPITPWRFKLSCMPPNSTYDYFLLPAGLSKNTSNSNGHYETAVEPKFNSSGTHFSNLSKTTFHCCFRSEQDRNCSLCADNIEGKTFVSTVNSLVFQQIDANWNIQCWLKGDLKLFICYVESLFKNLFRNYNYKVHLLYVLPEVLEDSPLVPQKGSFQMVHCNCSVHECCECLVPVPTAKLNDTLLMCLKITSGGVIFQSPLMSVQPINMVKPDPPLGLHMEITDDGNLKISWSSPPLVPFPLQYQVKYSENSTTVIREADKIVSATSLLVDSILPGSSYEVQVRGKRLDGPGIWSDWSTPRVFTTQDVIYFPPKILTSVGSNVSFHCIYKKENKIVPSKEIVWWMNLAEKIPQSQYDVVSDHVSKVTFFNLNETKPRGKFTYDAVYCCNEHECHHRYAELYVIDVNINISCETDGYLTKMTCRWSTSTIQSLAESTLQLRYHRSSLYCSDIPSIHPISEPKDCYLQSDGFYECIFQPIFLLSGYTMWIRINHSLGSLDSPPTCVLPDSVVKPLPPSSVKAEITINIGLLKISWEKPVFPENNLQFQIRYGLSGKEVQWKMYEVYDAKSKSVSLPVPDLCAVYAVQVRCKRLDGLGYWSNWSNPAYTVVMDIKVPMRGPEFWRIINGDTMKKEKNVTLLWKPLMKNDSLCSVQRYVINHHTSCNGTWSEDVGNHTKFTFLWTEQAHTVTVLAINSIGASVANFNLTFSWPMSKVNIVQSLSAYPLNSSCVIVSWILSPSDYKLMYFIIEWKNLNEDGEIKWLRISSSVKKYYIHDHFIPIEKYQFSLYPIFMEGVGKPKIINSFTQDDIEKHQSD
The experiment is described as follows: FACS, 200 nM antibody, HEK293/hLEPR-GPI cells, 1 µM Leptin present. The procedure: as §1, §2

The target in experiment [5] is T4, extracellular domain of human LEPR, …. The experiment is described as follows: FACS, 200 nM antibody, HEK293/hLEPR-GPI cells, No Leptin. As to the method:
as §1, §2

The target in experiment [6] is T5, macaca fascicularis LEPR extracellular domain expressed with a C-terminal myc-myc-hexahistidine tag (Macaca fascicularis, UniProt Q9MYL0 22-837 (rhesus entry)).
T5 construct: Monomeric reagent; the entry named is the whole tagged construct; also called mfLEPR-MMH
The experiment is described as follows: SPR (Biacore 4000), antibody captured by anti-human Fc, 25 C. A general note: SPR reads the build-up and loss of mass on a sensor chip optically.

Experiment [7] concerns the target T6, human LEPR extracellular domain expressed with a C-terminal myc-myc-hexahistidine tag (human, UniProt P48357 22-839).
T6 construct: Monomeric reagent; the entry named is the whole tagged construct; also called hLEPR-MMH; hLEPR.mmh
The description is as above.

As usually defined, the t½ is how long it takes for the measured level to halve. A lower t½ goes with rapid decline.

B1: bsAb21236D (bispecific antibody, V domains shown)
VH 1: QVQLQESGPGLVKPSQTLSLTCTVSGGSISSGGDYWSWIRQLPGKGLEWIGYIYYSGSAYYNPSLKSRGTISIDTSKNQFSLKLTSVTAADTAVYFCVKLRFLEWFLGGWFGPWGQGTLVTVSS
VH 2: QVQLVESGGGLVKPGGSLRLSCAASGFTFSDYYMTWIRQTPGKGLDWVSYISSSGTNKYNADSVKGRFTISRDNAKNSLYLQMNSLRAEDTAVYYCVRDPPWGMDVWGQGTTVTVSS
VL: not shown
notes: LEPR x GP130 bispecific with common light chain; also called H4H21236D; bsAb21236 (LEPR × GP130)
As to B1, the “Binding Ratio: Normalized to Unstained Sample of Each Cell Line (FL4-A)” value (from here on “Binding Ratio: Normalized”) in experiment [1] came out at 132 ratio; in experiment [4] it was 3600 ratio; in experiment [5] it was 4420 ratio. Also, the “EC50 (M), STAT3-luciferase activation of HEK293.STAT3.Luc.GP130.hLEPR (Y1141F) cells, 10 nM leptin” value in experiment [2] was 2.11e-09 M. The “Percentage activation as compared to hOSM” value in experiment [2] and in experiment [3] was 25% each time.

B2: mAb16683 (antibody, V domains shown)
VH: B1 VH 2
VL: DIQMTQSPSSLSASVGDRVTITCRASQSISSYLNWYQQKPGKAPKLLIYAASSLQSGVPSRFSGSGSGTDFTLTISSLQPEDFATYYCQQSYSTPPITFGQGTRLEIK
notes: Conventional anti-GP130 antibody; also called mAb16683 (anti-GP130 mAb)
Take B2: the results for the “Binding Ratio: Normalized” value in experiment [1] and in experiment [5] were 235 ratio and 21 ratio, respectively.

B3: bsAb21237D (bispecific antibody, V domains shown)
VH 1: EVQLVESGGGLVQPGGSLRLSCAASGFTFSNYGMTWVRQAPGKGLEWVSAITGGGGSTYYSNSVKGRFTISRDNSKNTVYLRMNSVRAEDTAVYYCAKYKWNFVDDWGQGTTVTVSS
VH 2: B1 VH 2
VL: not shown
notes: LEPR x GP130 bispecific with common light chain; also called H4H21237D; bsAb21237 (LEPR × GP130)
With B3, the “Binding Ratio: Normalized” value in experiment [1] is 169 ratio; in experiment [4], 5930 ratio; in experiment [5] it was 6320 ratio. The “EC50 (M), STAT3-luciferase activation of HEK293.STAT3.Luc.GP130.hLEPR (Y1141F) cells, 10 nM leptin” value in experiment [2] worked out at 2.46e-09 M. The “Percentage activation as compared to hOSM” value in experiment [2] and in experiment [3] was 20% in each case.

B4: bsAb21237D (bispecific antibody, V domains shown)
VH 1: B3 VH 1
VH 2: B1 VH 2
VL: not shown
notes: LEPR x GP130 bispecific antibody; also called H4H21237D
As for B4, the t½ in experiment [6] and in experiment [7] was 10 min throughout.

B5: bsAb21236D (bispecific antibody, V domains shown)
VH 1: B1 VH 1
VH 2: B1 VH 2
VL: not shown
notes: LEPR x GP130 bispecific antibody; also called H4H21236D
On to B5, for which the “100 nM hLEPR-MMH Bound (RU)” value in experiment [7] is 8 RU.

B6: mAb18445 (antibody, V domains shown)
VH: B1 VH 1
VL: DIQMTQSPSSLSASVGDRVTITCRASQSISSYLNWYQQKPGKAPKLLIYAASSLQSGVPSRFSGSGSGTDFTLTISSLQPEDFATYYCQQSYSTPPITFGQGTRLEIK
notes: Conventional anti-LEPR antibody; also called mAB18445 (anti-LEPR mAb)
Consider B6, for which the “Binding Ratio: Normalized” value in experiment [4] was determined as 4250 ratio; in experiment [5], 4710 ratio.

B7: mAb18446 (antibody, V domains shown)
VH: B3 VH 1
VL: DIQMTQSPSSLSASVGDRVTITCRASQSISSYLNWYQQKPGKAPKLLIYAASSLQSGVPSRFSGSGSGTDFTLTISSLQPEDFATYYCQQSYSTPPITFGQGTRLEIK
notes: Conventional anti-LEPR antibody; also called mAB18446 (anti-LEPR mAb)
On to B7, for which the “Binding Ratio: Normalized” value was 6390 ratio in experiment [4] and 7020 ratio in experiment [5].
